PMC11371640, “Structural deficits in key domains of Shank2 lead to alterations in postsynaptic nanoclusters and to a neurodevelopmental disorder in humans” (Molecular Psychiatry, 2022)

B1: His6-SUMO-tagged SH3 to PDZ domains of Shank2 (R520-D727), WT [not stated (human or rat cDNA cloned)] / synthetic peptide of the complete PDZ ligand of GKAP (last 15 amino acids of GKAP/SAPAP1) [not stated] (parent complex)
chain 1: RKLYSAVPGRLFVAVKPYQPQVDGEIPLHRGDRVKVLSIGEGGFWEGSARGHIGWFPAECVEEVQCKPRDSQAETRADRSKKLFRHYTVGSYDSFDTSSDCIIEEKTVVLQKKDNEGFGFVLRGAKADTPIEEFTPTPAFPALQYLESVDEGGVAWQAGLRTGDFLIEVNNENVVKVGHRQVVNMIRQGGNHLVLKVVTVTRNLDPDD
chain 2: ADSIEIYIPEAQTRL

Variants of: B1
Assay: ITC; parent: 320 nM

Variant | Kd
chain 1 G124R | 22500 nM

Variants of: B1
Assay: ITC; parent: 319 nM

Variant | Kd
chain 1 G124R | 22000 nM

Variants of: B1
Assay: ITC; parent: 319 nM
Remark: another data set of the same source

Variant | Kd
chain 1 S91Y | 910 nM
chain 1 N171S | 411 nM
chain 1 V198F | 848 nM
